What was measured:
[1] = molecular target: Nse2 ΔLoop1-SIM1 (budding yeast (Saccharomyces cerevisiae)) (UniProt P38632)
[2] = molecular target: Nse2 1-267 (budding yeast (Saccharomyces cerevisiae)) (UniProt P38632)
[3] = molecular target: Δ4C-Nse2 (ΔSIM2) (budding yeast (Saccharomyces cerevisiae)) (UniProt P38632)
[4] = molecular target: Ubc9 A129K/K153R (yeast (Saccharomyces cerevisiae)) (UniProt P50623)

Row | Substance | multiple-turnover SUMO conjugation on cNse4 by Nse2 ΔLoop1-SIM1/Arm-Smc5 against WT-Nse2, 30 °C [1] | Kcat/KM of single-turnover SUMO conjugation on cp53 (0.5 to 8 µM) by WT Nse2/Arm-Smc5 with extra non-conjugatable Smt3, 2 °C [2] | Kcat/KM of single-turnover SUMO conjugation on cp53 (0.5 to 8 µM) by Δ4C-Nse2 (ΔSIM2)/Arm-Smc5 with extra non-conjugatable Smt3, 2 °C [3] | Kcat of single-turnover discharge of purified Ubc9 K153R~Smt3 K11C/D68R-Alexa488 thioester on cp53 by Nse2/Arm-Smc5, with against without 1.5-fold excess of non-conjugatable SUMOB, 30 °C [4]
1 | FL Smt3 (from UniProt Q12306 1-101) (natural protein) | < 90 % reduction | – | – | –
2 | ΔN18 Smt3 (from UniProt Q12306 19-101) (domain or fragment) | – | 0.025 | 0.007 | 3 fold
